In patent US5783681, “Androgen regulation with DNA sequences of rat probasin gene” (University of Manitoba):

B1: probasin ARE-1 (dsDNA)
DNA 1: ATAGCATCTTGTTCTTAGT
DNA 2: ACTAAGAACAAGATGCTAT
B2: probasin ARE-2 (dsDNA)
DNA 1: GTAAAGTACTCCAAGAACCTATTT
DNA 2: AAATAGGTTCTTGGAGTACTTTAC

Legend:
Settings in all cases: tags: GST fusion, expressed in E. coli; chain copies: 2
[1] = molecular target: T1, GST-AR1 (androgen receptor DNA- and steroid-binding domains) (Rattus norvegicus, UniProt P15207 P15207:541-902); assay: footprint; site -236 to -223 protected within probasin 5'-flanking DNA
Protocol: (§1) The DNase I footprinting was performed essentially as described (Von der Ahe et al., 1993; Rennie et al., 1993). Proteins (10 ng to 18 µg) were incubated with 20,000 cpm of the labelled DNA in 100 µl of DNA binding buffer for 30 min at 20° C. After adjusting the samples to 4 mM MgCl_2 and 2.5 CaCl_2 mM, 5 ng of DNase I was added and allowed to digest the DNA for 2 minutes at 20° C. The reaction was stopped by adding 100 µl of stop buffer (0.25% SDS, 0.3M EGTA, and 500 µg/ml of proteinase K) and incubated for 1 hour at 37° C. The samples were extracted with phenol-chloroform; precipitated with 0.2M sodium acetate, 85 µg/ml carrier tRNA, and 2 volumes of ethanol; redissolved in 3 µl of formamide dye solution. After heating at 70° C. for 10 minutes and rapid cooling on ice, the samples were loaded, together with an A+G Maxam-Gilbert sequencing reaction to obtain a purine ladder, on 7% polyacrylamide/urea gels (acrylamide:bis, 30:1) and run (Rennie et al., 1993). The gels were dried and set up for autoradiography.
(§2) The androgen response elements (ARE) are located at −241 to −223 (ARE-1) and −140 to −117 (ARE-2). The sequence of ARE-1 and ARE-2 in the 5'-flanking PB DNA were determined using DNase I footprinting assays with peptides containing the DNA-binding domain of the androgen receptor and later bioassay of the functional domains. […]

[2] = molecular target: T2, GST-AR2 (androgen receptor DNA-binding domain and hinge region) (Rattus norvegicus, UniProt P15207 P15207:541-650); assay: as above
Protocol: as §1, §2

[3] = molecular target: T1, GST-AR1 (androgen receptor DNA- and …); assay: footprint; site -140 to -117 protected within probasin 5'-flanking DNA
Protocol: as §1, §2

[4] = molecular target: T2, GST-AR2 (androgen receptor DNA-binding …); assay: as above
Protocol: as §1, §2

T1 sequence (P15207 541-902, one chain of several): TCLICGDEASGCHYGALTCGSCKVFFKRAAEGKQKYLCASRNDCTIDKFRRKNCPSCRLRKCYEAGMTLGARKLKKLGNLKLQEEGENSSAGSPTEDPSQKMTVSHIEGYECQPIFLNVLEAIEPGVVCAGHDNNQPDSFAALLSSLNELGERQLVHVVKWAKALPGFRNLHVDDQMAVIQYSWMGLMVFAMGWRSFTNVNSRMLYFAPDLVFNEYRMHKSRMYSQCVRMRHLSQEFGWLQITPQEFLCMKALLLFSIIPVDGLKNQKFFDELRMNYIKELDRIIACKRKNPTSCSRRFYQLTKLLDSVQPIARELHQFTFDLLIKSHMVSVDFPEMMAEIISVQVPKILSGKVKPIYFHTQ
T2 sequence (P15207 541-650, one chain of several): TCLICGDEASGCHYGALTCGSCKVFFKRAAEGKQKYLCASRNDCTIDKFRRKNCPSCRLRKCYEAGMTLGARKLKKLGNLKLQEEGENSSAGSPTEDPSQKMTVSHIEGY

Binder | binding result [1] | binding result [2] | binding result [3] | binding result [4]
B1 | binds | binds |  | 
B2 |  |  | binds | binds
